{"source": "patent US20140031259A1", "key": {"[1]": {"molecular_target": "AKT1 kinase domain (WT) fused to the Gal4 DNA binding domain (UniProt P04386)", "assay": "cell-based or functional assay"}, "[2]": {"molecular_target": "AKT1 D323H kinase domain fused to the Gal4 DNA binding domain (UniProt P04386)", "assay": "cell-based or functional assay"}}}
{"substance": "AKT1 L52R PH domain fused to the VP16 activation domain (from UniProt P31749 5-108)", "values": [{"measurement": "luciferase reporter interaction signal in mammalian 2-hybrid assay, compared to WT-PH/WT-KD or E17K-PH/WT-KD", "setting": "[1]", "value": 50, "unit": "% reduction"}]}
{"substance": "AKT1 PH domain (WT) fused to the VP16 activation domain (from UniProt P31749 5-108)", "values": [{"measurement": "luciferase reporter interaction signal in mammalian 2-hybrid assay, compared to WT-PH/WT-KD or E17K-PH/WT-KD", "setting": "[2]", "value": 50, "unit": "% reduction"}]}
